Assay results taken from publication PMC3616719.

What was measured:
Assay in all cases: co-sedimentation
[1] = target: Bombyx mori ribosomal protein P0 (full-length) (Bombyx mori)
[2] = target: P0mutI (P0 with F215Q/V222Q in helix I) (Bombyx mori)
[3] = target: P0mutII (P0 with I241Q/L248Q in helix II) (Bombyx mori)

stoichiometry N (copies of P2 per 50S particle) [1]: 2.22
stoichiometry N (copies of P2 per 50S particle) [2]: 1.04
stoichiometry N (copies of P2 per 50S particle) [3]: 1.14
Substance: P1–[32P]P2 heterodimer (complex)
